The values that follow are results of earlier work, collected in publication PMC6051640.

pKd: −log10 of the molar value.

For this series, the target named is retinol binding protein (Homo sapiens) (UniProt P02753).

As for Stra6 (from UniProt Q9BX79), the pKd is 7.23.

What is called pKd is −log10 of the Kd, conventionally taken in molar units.
